Assay results taken from paper doi:10.1101/369462.

Biological target: truncated M1 C-terminal domain ([change], aa 165-252) (influenza/A/FPV/Rostock/34) (UniProt P03487)
Test: raster image correlation spectroscopy

## truncated M1 C-terminal domain ([change], aa 165-252) (from UniProt P03487 165-252) (domain or fragment)
  brightness of M1 wt relative to M1-C (fold): 4.3 fold
